{"source": "patent US20110229465A1", "about": "“COMPOSITION FOR TREATING DISEASE” (priority 2008, published 2011)", "key": {"Treg cells": {"tested_on": "Treg cells", "conditions": "in vitro 50 nM MTX (highest concentration analyzed); reduced from 94%, p<0.05; cited from earlier work"}, "[1]": {"tested_on": "CD4+CD25+ regulatory T cells", "assay": "in vitro proliferation assay with freshly isolated CD4+CD25+ regulatory T cells", "assay_type": "cell-based, human", "protocol": "50 ml EDTA blood specimens were obtained from healthy control donors. Peripheral blood mononuclear cells (PBMCs), regulatory T cells (Tregs) and T helper cells as T responder cells (Tresps) were isolated from peripheral blood samples as previously described (Haas et al., 2007).\nFreshly isolated Tregs were pre-incubated for 48 hours with 1 μg/ml plate bound antibody (BT061), 1 μg/ml soluble BT061 or Medium.\nFreshly isolated Tregs (2.5×10^4, donor A) obtained from 2 donors (Exp. 1 and Exp. 2) were pre-incubated for 48 hours with either 1 μg/ml soluble or plate bound BT061. To achieve allogeneic stimulation the 2.5×10^4 pre-incubated Tregs were then transferred to 1×10^5 T cells as responder cells (Tresps) from a second donor (donor B) in the presence of 2×10^5 T cell depleted and irradiated (30 Gray) PBMCs (donor A). After 4 days of stimulation 1 μCi [3H] thymidine per well was added and proliferation was measured after additional 16 hours.\nThe percentage of Treg mediated inhibition of Tresp proliferation is shown in FIG. 1 as the percent suppression of proliferation of Tresps incubated with PBMC in the absence of Tregs. Results are shown for the Tregs obtained from the two donors (Exp. 1 and Exp. 2). […]"}, "[2]": {"tested_on": "rheumatoid arthritis patients", "assay": "monotherapy trial of BT061 in rheumatoid arthritis patients, ACR improvements", "assay_type": "in vivo, human", "conditions": "week 7, blinded data from 8 individuals (2 placebo, six BT061)", "source_text": "This system defines a value of ACR 20 as an at least 20% improvement in tender and swollen joint counts and at least 20% improvement in 3 of the 5 remaining ACR core set measures: patient and physician global assessments, pain, disability, and an acute phase reactant, such as C-reactive protein (CRP) or Erythrocyte Sedimentation Rate (ESR). Similarly, ACR 50 and ACR 70 scores define an at least 50% and an at least 70% improvement, respectively.\nAs indicated above, in one aspect of the invention the agent and/or methotrexate are administered subcutaneously. In general, as is known in the art, subcutaneous doses need to be larger than intravenous doses in order to achieve the equivalent therapeutic effect."}, "[3]": {"assay": "plasma levels of BT061 after intravenous administration in healthy volunteers", "assay_type": "in vivo, human", "conditions": "range in three volunteers", "source_text": "This is considered to reflect a faster target mediated clearance."}, "[4]": {"conditions": "2 mg i.v. once weekly for six weeks"}, "[5]": {"conditions": "50 mg s.c. once weekly for six weeks"}}, "data": [{"molecule": "CN(Cc1cnc2nc(N)nc(N)c2n1)c1ccc(C(=O)N[C@@H](CCC(=O)O)C(=O)O)cc1", "note": "[MTX, 4-amino-N10-methylpteroyl glutamic acid]", "values": [{"measurement": "suppressive activity of Treg cells", "setting": "Treg cells", "result": 88, "unit": "%"}]}, {"molecule": "BT061: humanized anti-CD4 antibody derived from mouse B-F5, V domains SEQ ID NO: 1 and 2, activates CD4+CD25+ regulatory T cells (antibody, V domains shown, V domain of H chain of humanized antibody hB-F5H37L; V domain of K chain of humanized antibody hB-F5L4M) VH: EEQLVESGGGLVKPGGSLRLSCAASGFSFSDCRMYWLRQAPGKGLEWIGVISVKSENYGANYAESVRGRFTISRDDSKNTVYLQMNSLKTEDTAVYYCSASYYRYDVGAWFAYWGQGTLVTVSS VL: DIVMTQSPDSLAVSLGERATINCRASKSVSTSGYSYIYWYQQKPGQPPKLLIYLASILESGVPDRFSGSGSGTDFTLTISSLQAEDVAVYYCQHSRELPWTFGQGTKVEIK", "values": [{"measurement": "Treg mediated suppression of Tresp proliferation", "setting": "[1]; Tregs pre-incubated 48 hours with 1 μg/ml plate bound BT061, versus medium alone", "result": "able to reduce average proliferative responses of allogeneic stimulated Tresps"}, {"measurement": "Treg mediated suppression of Tresp proliferation", "setting": "[1]; Tregs pre-incubated 48 hours with 1 μg/ml soluble BT061, versus medium alone", "result": "able to reduce average proliferative responses of allogeneic stimulated Tresps"}, {"measurement": "percentage of patients showing ACR20", "setting": "[2]; [4]", "result": 50, "unit": "%"}, {"measurement": "percentage of patients showing ACR50", "setting": "[2]; [4]", "result": 25, "unit": "%"}, {"measurement": "percentage of patients showing ACR70", "setting": "[2]; [4]", "result": 12.5, "unit": "%"}, {"measurement": "percentage of patients showing ACR20", "setting": "[2]; [5]", "result": 50, "unit": "%"}, {"measurement": "percentage of patients showing ACR50", "setting": "[2]; [5]", "result": 25, "unit": "%"}, {"measurement": "percentage of patients showing ACR70", "setting": "[2]; [5]", "result": 12.5, "unit": "%"}, {"measurement": "plasma level, conc. 3 h post end of infusion", "setting": "[3]; dosage 2.5 mg intravenous", "result": 0, "unit": "ng/mL"}, {"measurement": "plasma level, effective cmax (post end of infusion)", "setting": "[3]; dosage 2.5 mg intravenous", "result": "60 to 140", "unit": "ng/mL"}, {"measurement": "plasma level, conc. 3 h post end of infusion", "setting": "[3]; dosage 5 mg intravenous", "result": "90 to 160", "unit": "ng/mL"}, {"measurement": "plasma level, effective cmax (post end of infusion)", "setting": "[3]; dosage 5 mg intravenous", "result": "320 to 440", "unit": "ng/mL"}, {"measurement": "plasma level, conc. 3 h post end of infusion", "setting": "[3]; dosage 10 mg intravenous", "result": "460 to 1400", "unit": "ng/mL"}, {"measurement": "plasma level, effective cmax (post end of infusion)", "setting": "[3]; dosage 10 mg intravenous", "result": "800 to 2000", "unit": "ng/mL"}, {"measurement": "plasma level, conc. 3 h post end of infusion", "setting": "[3]; dosage 20 mg intravenous", "result": "1700 to 3300", "unit": "ng/mL"}, {"measurement": "plasma level, effective cmax (post end of infusion)", "setting": "[3]; dosage 20 mg intravenous", "result": "2300 to 4100", "unit": "ng/mL"}, {"measurement": "plasma level, conc. 3 h post end of infusion", "setting": "[3]; dosage 40 mg intravenous", "result": "4400 to 6100", "unit": "ng/mL"}, {"measurement": "plasma level, effective cmax (post end of infusion)", "setting": "[3]; dosage 40 mg intravenous", "result": "5900 to 6500", "unit": "ng/mL"}, {"measurement": "plasma level, conc. 3 h post end of infusion", "setting": "[3]; dosage 60 mg intravenous", "result": "7700 to 11080", "unit": "ng/mL"}, {"measurement": "plasma level, effective cmax (post end of infusion)", "setting": "[3]; dosage 60 mg intravenous", "result": "8900 to 15100", "unit": "ng/mL"}]}]}
